# Measured values as given in the supplement of paper PMC9112550, “Optimization of the antimicrobial peptide Bac7 by deep mutational scanning” (BMC Biology, 2022).
# System: Escherichia coli TOP10
# Test: shrunken log2 fold change of peptide-encoding DNA abundance (4.5 h post-induction vs induction); higher = less antimicrobial activity (less host growth inhibition)
# Settings: time post-induction: 4.5 h; library: site-saturation at positions 5, 18, 19, 20
# 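Also: peptides expressed intracellularly from a pBAD plasmid library in pooled LB shake-flask culture, induced with 0.3% L-arabinose, DNA abundance read by NGS, three biological replicates, DESeq2 with apeglm shrinkage.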
row,Sequence,shrunken log2 fold change
1,RRIRARPPRLPRPRPRPAWDPRP,0.858
2,RRIRIRPPRLPRPRPRPPIDPRP,-0.724
3,RRIRERPPRLPRPRPRPHRDPRP,-0.063
4,RRIRDRPPRLPRPRPRPRFHPRP,-0.239
5,RRIRQRPPRLPRPRPRPFEEPRP,-0.138
6,RRIRPRPPRLPRPRPRPNCIPRP,-0.134
7,RRIRKRPPRLPRPRPRPIKTPRP,-0.0153
8,RRIRARPPRLPRPRPRPCMPPRP,-0.0783
9,RRIRARPPRLPRPRPRPWKDPRP,-0.0732
10,RRIRQRPPRLPRPRPRPNTSPRP,-0.292
11,RRIRDRPPRLPRPRPRPEIDPRP,0.0535
12,RRIRIRPPRLPRPRPRPPWKPRP,0.089
13,RRIRFRPPRLPRPRPRPFMFPRP,-0.739
14,RRIRCRPPRLPRPRPRPPKLPRP,0.0685
15,RRIRQRPPRLPRPRPRPGTIPRP,-0.259
16,RRIRRRPPRLPRPRPRPMDPPRP,0.139
17,RRIRIRPPRLPRPRPRPWHKPRP,-0.00213
18,RRIRDRPPRLPRPRPRPALQPRP,0.671
19,RRIRPRPPRLPRPRPRPWAEPRP,0.166
20,RRIRWRPPRLPRPRPRPPLQPRP,0.475
21,RRIRWRPPRLPRPRPRPWTKPRP,-0.0653
22,RRIRIRPPRLPRPRPRPLWEPRP,0.223
23,RRIRLRPPRLPRPRPRPFDDPRP,-0.00884
24,RRIRDRPPRLPRPRPRPSWTPRP,-0.274
25,RRIRLRPPRLPRPRPRPGKQPRP,0.0284

row,Sequence,shrunken log2 fold change
1,RRIRTRPPRLPRPRPRPTNRPRP,0.0146
2,RRIRPRPPRLPRPRPRPIKDPRP,-0.763
3,RRIRERPPRLPRPRPRPQNSPRP,-0.505
4,RRIRKRPPRLPRPRPRPTIVPRP,-0.0951
5,RRIRMRPPRLPRPRPRPKFTPRP,0.313
6,RRIRNRPPRLPRPRPRPWYEPRP,-0.0232
7,RRIRKRPPRLPRPRPRPWCVPRP,-0.00029
8,RRIRSRPPRLPRPRPRPECWPRP,1.03
9,RRIRKRPPRLPRPRPRPLANPRP,0.029
10,RRIRRRPPRLPRPRPRPWRGPRP,0.215
11,RRIRTRPPRLPRPRPRPNPYPRP,-0.121
12,RRIRCRPPRLPRPRPRPHRCPRP,-0.128
13,RRIRGRPPRLPRPRPRPRGPPRP,1.66
14,RRIRIRPPRLPRPRPRPSEGPRP,-0.0262
15,RRIRDRPPRLPRPRPRPLLVPRP,0.134
16,RRIRERPPRLPRPRPRPHTWPRP,-0.33
17,RRIRFRPPRLPRPRPRPPHFPRP,0.341
18,RRIRQRPPRLPRPRPRPMCKPRP,-0.0652
19,RRIRMRPPRLPRPRPRPAVRPRP,0.835
20,RRIRMRPPRLPRPRPRPTQVPRP,1.17
21,RRIRSRPPRLPRPRPRPAPNPRP,0.329
22,RRIRHRPPRLPRPRPRPFPIPRP,0.0165
23,RRIRSRPPRLPRPRPRPAKSPRP,0.0744
24,RRIRWRPPRLPRPRPRPEGPPRP,0.438
25,RRIRIRPPRLPRPRPRPSTGPRP,-0.505

row,Sequence,shrunken log2 fold change
1,RRIRRRPPRLPRPRPRPVAGPRP,0.453
2,RRIRARPPRLPRPRPRPYARPRP,-0.118
3,RRIRARPPRLPRPRPRPTENPRP,0.381
4,RRIRKRPPRLPRPRPRPAWPPRP,0.675
5,RRIRERPPRLPRPRPRPVHSPRP,-0.0947
6,RRIRPRPPRLPRPRPRPDAPPRP,0.227
7,RRIRCRPPRLPRPRPRPHAQPRP,0.0778
8,RRIRDRPPRLPRPRPRPYELPRP,-0.118
9,RRIRIRPPRLPRPRPRPHSWPRP,-0.327
10,RRIRMRPPRLPRPRPRPAVEPRP,0.741
11,RRIRQRPPRLPRPRPRPSDLPRP,-0.333
12,RRIRDRPPRLPRPRPRPWLGPRP,0.109
13,RRIRYRPPRLPRPRPRPSPDPRP,-0.0956
14,RRIRVRPPRLPRPRPRPWGWPRP,0.331
15,RRIRCRPPRLPRPRPRPFRNPRP,-0.0491
16,RRIRFRPPRLPRPRPRPMRVPRP,0.973
17,RRIRRRPPRLPRPRPRPVTYPRP,-0.0642
18,RRIRNRPPRLPRPRPRPFNTPRP,-0.765
19,RRIRKRPPRLPRPRPRPWRHPRP,0.094
20,RRIRHRPPRLPRPRPRPPPPPRP,1.05
21,RRIRQRPPRLPRPRPRPAHIPRP,-0.137
22,RRIRCRPPRLPRPRPRPTQHPRP,0.349
23,RRIRHRPPRLPRPRPRPIEMPRP,-0.00281
24,RRIRLRPPRLPRPRPRPIHIPRP,-0.374
25,RRIRKRPPRLPRPRPRPKCGPRP,0.0305
